{"source": "paper PMC6146688", "key": {"[1]": {"target": "LacI-mCherry-E1A(140–189) (human adenovirus 2) (UniProt P03254)"}, "[2]": {"target": "LacI-mCherry-E1A(133–189) (human adenovirus 2) (UniProt P03254)", "experiment": "recruitment to a lacO array (colocalisation of a YFP fusion with a LacI-tethered fusion, confocal microscopy); CHO-A03.1 cells with ~10,000 integrated lacO sites, cotransfected with 2 ug LacI-CFP-E1A or LacI-mCherry-E1A vector and 2 ug YFP-MED6, YFP-MED23 or YFP-p300 vector; fixed after 48 h; score = % of scored cells with colocalisation"}, "[3]": {"target": "LacI-mCherry-E1A(121–223) (human adenovirus 2) (UniProt P03254)", "experiment": "recruitment to a lacO array (colocalisation of a YFP fusion with a LacI-tethered fusion, confocal microscopy); CHO-A03.1 cells with ~10,000 integrated lacO sites, cotransfected with 2 ug LacI-CFP-E1A or LacI-mCherry-E1A vector and 2 ug YFP-MED6, YFP-MED23 or YFP-p300 vector; fixed after 48 h; score = % of scored cells with colocalisation"}, "[4]": {"target": "LacI-mCherry-E1A(133–178) (human adenovirus 2) (UniProt P03254)", "experiment": "recruitment to a lacO array (colocalisation of a YFP fusion with a LacI-tethered fusion, confocal microscopy); CHO-A03.1 cells with ~10,000 integrated lacO sites, cotransfected with 2 ug LacI-CFP-E1A or LacI-mCherry-E1A vector and 2 ug YFP-MED6, YFP-MED23 or YFP-p300 vector; fixed after 48 h; score = % of scored cells with colocalisation"}, "[5]": {"target": "LacI-mCherry-E1A(133–205) (human adenovirus 2) (UniProt P03254)", "experiment": "recruitment to a lacO array (colocalisation of a YFP fusion with a LacI-tethered fusion, confocal microscopy); CHO-A03.1 cells with ~10,000 integrated lacO sites, cotransfected with 2 ug LacI-CFP-E1A or LacI-mCherry-E1A vector and 2 ug YFP-MED6, YFP-MED23 or YFP-p300 vector; fixed after 48 h; score = % of scored cells with colocalisation"}, "[6]": {"target": "LacI-mCherry-E1A(140–205) (human adenovirus 2) (UniProt P03254)", "experiment": "recruitment to a lacO array (colocalisation of a YFP fusion with a LacI-tethered fusion, confocal microscopy); CHO-A03.1 cells with ~10,000 integrated lacO sites, cotransfected with 2 ug LacI-CFP-E1A or LacI-mCherry-E1A vector and 2 ug YFP-MED6, YFP-MED23 or YFP-p300 vector; fixed after 48 h; score = % of scored cells with colocalisation"}}, "data": [{"substance": "YFP-p300, Q09472 1-2414", "values": [{"measurement": "luciferase reporter with eight lacO sites upstream of the E1B promoter, transient transfection of CHO-K1 cells; activity relative to LacI-mCherry-E1A(121–223)", "setting": "[1]", "value": 10, "unit": "%"}, {"measurement": "colocalization score (% of cells)", "setting": "[2]", "value": 86, "unit": "%"}, {"measurement": "colocalization score (% of cells)", "setting": "[3]", "value": 86, "unit": "%"}, {"measurement": "colocalization score (% of cells)", "setting": "[4]", "value": 64, "unit": "%"}, {"measurement": "colocalization score (% of cells)", "setting": "[5]", "value": 73, "unit": "%"}, {"measurement": "colocalization score (% of cells)", "setting": "[6]", "value": 64, "unit": "%"}]}]}
